{"source": "paper PMC10726971", "about": "(Nature chemical biology, 2023)", "proteins": {"B1": {"name": "human FUT9 soluble catalytic domain (residues 39-359) (enzyme, UniProt Q9Y231 39-359, looked up)", "chain": "SPMESASSVLKMKNFFSTKTDYFNETTILVWVWPFGQTFDLTSCQAMFNIQGCHLTTDRSLYNKSHAVLIHHRDISWDLTNLPQQARPPFQKWIWMNLESPTHTPQKSGIEHLFNLTLTYRRDSDIQVPYGFLTVSTNPFVFEVPSKEKLVCWVVSNWNPEHARVKYYNELSKSIEIHTYGQAFGEYVNDKNLIPTISTCKFYLSFENSIHKDYITEKLYNAFLAGSVPVVLGPSRENYENYIPADSFIHVEDYNSPSELAKYLKEVDKNNKLYLSYFNWRKDFTVNLPRFWESHACLACDHVKRHQEYKSVGNLEKWFWN", "modifications": "N-glycans cleaved with EndoF1; a tetrasaccharide (Manα1,3-Manβ1,4-GlcNAcβ1,4-GlcNAcβ-) is left on Asn153"}}, "biological_target": "the molecule itself", "assay": "SEC-MALS"}
{"protein": "B1", "values": [{"measurement": "stoichiometry N", "result": 2}]}
